Substitutions are numbered along the chain they refer to. Where two headings read alike, the source gives them in different places.

Test [1] addresses T1, human BAFF-R expressed on cells (human, UniProt Q96RJ3 1-184).
T1 construct: Cell surface BAFF-R, endogenous on B cell lines and primary B cells or overexpressed on isogenic CHO cells; also called hBAFF-R; hBAFF-R-CHO
Kind of test: flow cytometry on hBAFFR-CHO cells, anti-mouse IgG(H+L)-PE. Background: Flow cytometry measures light scatter and fluorescence of single cells or particles in a stream.

Test [2] deals with T1, human BAFF-R expressed on cells. Kind of test: flow cytometry on hBAFFR-CHO cells, anti-mouse (H+L)-PE.
Test [3] shares this target. Kind of test: cell-based or functional assay.
Test [4] shares this target. Kind of test: flow cytometry, BAFF-R-CHO cells.
Test [5] shares this target. Kind of test: told of the group of Table 17, reference AB0369; format not given.
For test [6], the target named is T2, hBAFF-R-hFc-His fusion protein (human, UniProt Q96RJ3 1-78, biotinylated in the yeast display assays).
T2 construct: the whole entry is named; also called hBAFFR-Fc; biotinylated hBAFF-R-hFc-His
Kind of test: yeast display flow cytometry after challenge: 100 pM hBAFFR-Fc biotin for 1hr at RT, then 1 mM nonbiotinylated hBAFFR-Fc (as printed on the sheet).

In test [7] the target is T1, human BAFF-R expressed on cells. Kind of test: blocking of BAFF-biotin on hBAFF-R CHO cells.
The target is the same in test [8]. Kind of test: flow cytometry, human BAFF-R CHO cells.
Test [9] has the same target. Kind of test: flow cytometry, hBAFF-R+ cells.
Test [10] has as its target T3, cynomolgus monkey BAFF-R expressed on cells (cynomolgus monkey).
T3 construct: whole, on cells; also called cBAFF-R; cynoBAFF-R
Kind of test: flow cytometry, cyno BAFF-R CHO cells.

Test [11] concerns the target T3, cynomolgus monkey BAFF-R expressed on …. Kind of test: flow cytometry, cBAFF-R+ cells.
The target of test [12] is T1, human BAFF-R expressed on cells. Kind of test: flow cytometry, hBAFF-R+ cells. The source holds these as a separate data set.
Test [13] addresses T3, cynomolgus monkey BAFF-R expressed on …. Kind of test: flow cytometry, cyno BAFF-R CHO cells. This is another data set of the same source.
Test [14] has as its target T1, human BAFF-R expressed on cells. Kind of test: flow cytometry, human BAFF-R CHO cells. The source holds these as a separate data set.
For test [15] the target is unchanged. Kind of test: blocking of BAFF-biotin on BAFF-R CHO cells.
The target of test [16] is T3, cynomolgus monkey BAFF-R expressed on …. Kind of test: flow cytometry on cBAFFR-CHO cells.
In test [17] the target is T1, human BAFF-R expressed on cells. Kind of test: flow cytometry on hBAFFR-CHO cells.
For test [18] the target is unchanged. Kind of test: flow cytometry, RAJI cells. Here is the method: The BAFF-R positive human B lymphoblastoid RAJI cell line was used to assess TriNKET binding to cell surface BAFF-R. Certain BAFF-R TriNKETs in the 2-Fab and F3′ formats, as described in the “exemplary multispecific binding proteins” subsection above, were diluted and incubated with Raji cells. Binding patterns of TriNKETs and parental monoclonal antibodies were detected using a fluorophore conjugated anti-human IgG secondary antibody. The cells were then incubated with a fluorophore conjugated anti-human IgG secondary antibody and were analyzed by flow cytometry. The mean fluorescence intensity (MFI) values were normalized to secondary antibody only controls to obtain fold over background (FOB) values.

Test [19] has the same target. Kind of test: flow cytometry blocking assay on hBAFFR-CHO cells; blocked ligand: 20 nM BAFF-biotin.
For test [20] the target is unchanged. The test is described as above. This is another data set of the same source.
Test [21] has the same target. The description is as above. This is another data set of the same source.
Test [22] shares this target. Kind of test: blocking of BAFF-biotin on hBAFF-R CHO cells, flow cytometry. Here is the method:
Briefly, CHO cells expressing human BAFF-R were harvested, washed in cold FACS buffer, and seeded at a density of 100,000 cells per well. Test articles were diluted in FACS buffer, and 50 μL of diluted multispecific binding protein or mAb was added to cells, incubated on ice for 60 minutes, then washed with FACS buffer. […] Cells were incubated with 100 μL of 1:200 streptavidin-PE diluted in FACS buffer and incubated on ice for 30 minutes then washed with FACS buffer. Cells were then incubated in 100 μL of 1:1,000 dilution of live/dead dye in PBS for 15 minutes, then washed with FACS buffer, and fixed. After incubation, cells were washed with FACS buffer and resuspended in FACS buffer for analysis with flow cytometry. Median fluorescent intensity (MFI) of each sample and the secondary-only control was calculated. […] Data were fit to a four-parameter non-linear regression curve using GraphPad Prism.

B1: 3A1 (antibody, V domains shown)
VH: QVQLQQPGAELVKPGASVKLSCKASGYTFTSYWMHWVKQRPGQGLEWIGEIDPFDSYTNYNQNFKGKATLTVDKSSSTAYMLLSSLTSDDSAVYYCARERLRLWSYYFDYWGQGTTLTVSS
VL: DVVMTQTPLSLPVSLGDQASISCRSSQSIVHSNGNTYLEWYLQKPGQSPKLLIYKVSNRLSGVPDRFSGSGSGTDFTLKISRVEAEDLGVYYCFQGSHDPFTFGSGTKLEIK
notes: Mouse hybridoma mAb from DNA immunization; also called clone 3A1
Consider B1, for which the concentration giving a half-maximal response (EC50 (read off the curve)) (commonly the concentration giving half of the maximal effect) in test [1] is around 0.3 nM.

B2: 7G4 (antibody, V domains shown)
VH: B1 VH with I51V, F54S, N63K, M81I, S85N, L101V, Y107F
VL: B1 VL
notes: Mouse hybridoma mAb from DNA immunization; also called clone 7G4
As for B2, the “EC50 (read off the curve)” value in test [1] is around 0.3 nM.

B3: 10H7-C5 (antibody, V domains shown)
VH: EVQLVESGGGLVKPGGSLKLSCAASGFSFSRYAMSWVRQTPEKRLEWVATISDGGSYTHYRDNVKGRFTISRDNAKNNLNLQMSHLKSEDTAIYYCARNEMGLYFDYDVYAMDYWGQGTSVTVSS
VL: DIVMTQTPLSLPVSLGDQASISCRSSQSLLHSNGNTYLYWYLQKPGQSPKLLIHRVSNRFSGVPDRFGGSGSGTDFTLKIIRVEAEDLGVYFCFQGTHVPWTFGGGTKLEIK
notes: Mouse hybridoma mAb from DNA immunization; also called clone 10H7-C5
In the case of B3, the “EC50 (read off the curve)” value in [2] was in the range of 1 to 10 nM.

B4: 1B3-A7 (antibody, V domains shown)
VH: EVQLVESGGGLVKPGGSLKLSCVVSGFTFSNYAMSWVRQTPEKRLEWVATISDGGGYTYYPDSVKGRFTISRDNAKNNLYLQMSHLKSEDTAIYYCARDDLGGGNYVSSYFDVWGTGTTVTVSS
VL: B3 VL with I2V, L15P, L30V, H54Y, G68S, I81N, W101L, G105S, I111L
notes: Mouse hybridoma mAb from DNA immunization; also called clone 1B3-A7
With B4, the “EC50 (read off the curve)” value in test [2] was around 2 nM.

B5: AB0605 (bispecific antibody, V domains shown)
VH: EVQLVQSGGGVVQPGRSLRLSCAASGFTFSSYGMHWVRQAPGKCLEWVAVIWYDGSNKYYGDSVKGRFTISRDNSKNTLYLQMNSLRDEDTAVYYCARRFTMLRGQYIEDYGMDVWGQGTTVTVSS
VL: not shown
notes: also called AB0605-001
In the case of B5, in test [3], the “KHYG-A-CD16Av mediated Cytolysis of Ramos cells EC50” value (from here on “KHYG-A-CD16Av mediated Cytolysis”) is 0.15 nM. In test [4], a half-maximal effect (EC50) was put at 5.72 nM. For the same molecule, the “fold improvement in BAFF-R binding against AB0369” value (“fold improvement in BAFF-R binding” for short) in [5] was above 3 fold.

B6: AB1080scFv (scFv, V domains shown)
VH: B5 VH with G55A, M102H, Q106W, M113L
VL: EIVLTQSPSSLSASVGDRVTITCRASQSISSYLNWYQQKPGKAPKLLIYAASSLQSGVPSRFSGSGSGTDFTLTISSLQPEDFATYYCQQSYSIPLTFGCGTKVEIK
notes: scFv on yeast; also called AB1080 (yeast clone)
B6: the “Iana (percent of events in the drawn gate named Iana)” value in [6] was found to be 23.4.

B7: AB1080 (bispecific antibody, V domains shown)
VH: B5 VH with G55A, M102H, Q106W, M113L
VL: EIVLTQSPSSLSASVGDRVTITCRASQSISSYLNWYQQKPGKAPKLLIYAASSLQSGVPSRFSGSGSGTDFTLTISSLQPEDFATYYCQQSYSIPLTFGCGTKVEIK
notes: also called AB1080-002; AB1080-003
On to B7, for which the half-maximal inhibitory concentration (IC50) (usually the concentration at which inhibition is half-maximal) in test [7] was determined as 5.72 nM. The EC50 (in general, the concentration that produces a half-maximal response) in test [8] worked out at 2.71 nM; in test [9] it was 1.97 nM; in test [10], 2.36 nM; in test [11], 1.36 nM.

B8: AB0900 (bispecific antibody, V domains shown)
VH: B5 VH with Y32S, G55A, M102S, Q106W, M113L
VL: not shown
The molecule B8 registered an EC50 in [12] of 11.7 nM.

B9: AB0682 (bispecific antibody, V domains shown)
VH: B5 VH with Y32S, Q106W
VL: not shown
notes: also called AB0682-001
For B9, the figures for the EC50 in [13] and in [14] were 3.1 nM and 2.4 nM, respectively. 12.6 nM corresponded to half-maximal inhibition in [15] (IC50).

B10: AB0606 (bispecific antibody, V domains shown)
VH: B5 VH with Q106W
VL: not shown
notes: also called AB0606-001
Consider B10, for which, in test [3], the “KHYG-A-CD16Av mediated Cytolysis” value is 0.06 nM. In addition, the response in test [4] was half-maximal at 4.5 nM (EC50). The “fold improvement in BAFF-R binding” value in test [5] was above 3 fold.

B11: AB0679 (bispecific antibody, V domains shown)
VH: B5 VH with T28P, Q106W
VL: not shown
notes: also called AB0679-001
Turning to B11, the figures for the EC50 in test [13] and in test [14] were 2.6 nM and 2.3 nM, respectively. The molecule also gave an IC50 in [15] of 9.4 nM.

B12: AB1081 (bispecific antibody, V domains shown)
VH: B5 VH with T28A, G55E, K76R, M102N, Q106W, Y107I, M113L
VL: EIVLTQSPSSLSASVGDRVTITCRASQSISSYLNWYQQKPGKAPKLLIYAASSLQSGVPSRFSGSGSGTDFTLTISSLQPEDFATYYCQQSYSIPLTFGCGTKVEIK
notes: also called AB1081-002
Consider B12, for which the EC50 in test [9] is above 8 nM; in [11], above 14 nM.

B13: AB0622 (bispecific antibody, V domains shown)
VH: B5 VH with Q106W, Y107I
VL: not shown
notes: also called AB0622-001
As for B13, the “KHYG-A-CD16Av mediated Cytolysis” value in [3] was 0.09 nM. A half-maximal response in test [4] (EC50) required 3.45 nM. Also, in test [5], the “fold improvement in BAFF-R binding” value was above 3 fold.

B14: AB0899 (bispecific antibody, V domains shown)
VH: B5 VH with Y32S, G55A, M102Y, Q106W, M113L
VL: not shown
B14 displayed an EC50 in test [12] of 4.3 nM.

B15: AB0898 (bispecific antibody, V domains shown)
VH: B5 VH with Y32S, G55A, M102R, Q106W, M113L
VL: not shown
The molecule B15 showed an EC50 in test [12] of 4.3 nM.

B16: AB1084scFv (scFv, V domains shown)
VH: B5 VH with S31M, G55A, M102R, Q106W, M113L
VL: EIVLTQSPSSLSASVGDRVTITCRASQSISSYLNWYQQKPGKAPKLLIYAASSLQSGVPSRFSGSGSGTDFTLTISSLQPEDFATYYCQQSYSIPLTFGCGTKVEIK
notes: scFv on yeast; also called AB1084 (yeast clone)
B16: in test [6], the “Iana (percent of events in the drawn gate named Iana)” value is 7.4.

B17: AB1085 (bispecific antibody, V domains shown)
VH: B5 VH with S30G, M102H
VL: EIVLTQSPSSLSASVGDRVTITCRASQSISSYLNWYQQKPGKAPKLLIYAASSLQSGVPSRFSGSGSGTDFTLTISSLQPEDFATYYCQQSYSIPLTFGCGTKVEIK
notes: also called AB1085-001
B17 yielded a half-maximal inhibitory concentration (IC50) in [7] of 12.7 nM. In addition, the EC50 was 4.48 nM in test [8], 5.78 nM in test [9], 3.29 nM in test [10] and 4.34 nM in [11].

B18: AB1081scFv (scFv, V domains shown)
VH: B5 VH with T28A, G55E, K76R, M102N, Q106W, Y107I, M113L
VL: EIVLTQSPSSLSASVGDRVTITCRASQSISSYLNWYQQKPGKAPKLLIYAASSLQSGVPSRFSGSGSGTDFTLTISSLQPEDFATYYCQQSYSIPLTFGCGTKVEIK
notes: scFv on yeast; also called AB1081 (yeast clone)
With B18, in test [6], the “Iana (percent of events in the drawn gate named Iana)” value is 27.2.

B19: Ianalumab-mAb (antibody, V domains shown)
VH: QVQLQQSGPGLVKPSQTLSLTCAISGDSVSSNSAAWGWIRQSPGRGLEWLGRIYYRSKWYNSYAVSVKSRITINPDTSKNQFSLQLNSVTPEDTAVYYCARYQWVPKIGVFDSWGQGTLVTVSS
VL: DIVLTQSPATLSLSPGERATLSCRASQFILPEYLSWYQQKPGQAPRLLIYGSSSRATGVPARFSGSGSGTDFTLTISSLEPEDFAVYYCQQFYSSPLTFGQGTKVEIK
notes: Parental control mAb; also called Ianalumab-based tool-mAb; Tool-mAb
Take B19: the “EC50 (read off the curve)” value was around 0.4 nM in [16] and around 0.5 nM in test [17]. In addition, it took 0.003 nM to reach a half-maximal effect in [18] (EC50). Further, the “IC50 (read off the curve)” value is around 0.8 nM in test [19], around 0.4 nM in [20] and around 0.4 nM in [21]. Further, the IC50 in [22] turned out to be 0.5 nM; in [15], 0.38 nM.

The values above are taken from US20240360223A1 (DRAGONFLY THERAPEUTICS, published 2024).
